Entries after “also recorded” stand apart in the source; their conditions may differ.
T1: BMP2 (Homo sapiens, UniProt P12643)
T1 sequence (P12643 283-396): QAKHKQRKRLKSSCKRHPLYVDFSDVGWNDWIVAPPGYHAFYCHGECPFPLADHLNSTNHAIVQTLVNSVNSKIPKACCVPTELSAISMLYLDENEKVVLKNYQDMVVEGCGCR

T2: BMP4 (Homo sapiens, UniProt P12644)
T2 sequence (P12644 293-408): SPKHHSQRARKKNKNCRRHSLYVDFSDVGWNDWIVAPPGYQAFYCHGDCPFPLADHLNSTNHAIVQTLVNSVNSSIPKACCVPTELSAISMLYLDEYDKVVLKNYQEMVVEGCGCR


Assays:
[1] = target: T1, BMP2; assay: BMP activity luciferase reporter assay (BRE-luciferase, ID1 promoter) in C2C12 cells; format: cell-based, mouse
Experimental: (§1) One of the most studied BMP target genes is the Inhibitor of Differentiation 1 (ID1). This is an immediate early gene that is activated by binding of the phosphorylated SMADs to its promoter region (López-Rovira et al., 2002). Thus, we employed the BMP-responsive C2C12 cells, which are stably transfected with the BRE-luciferase vector containing the BMP-Responsive-Element (the mouse ID1 promoter) cloned into the pGL3 luciferase vector (Zilberberg 2007). […] C2C12 cells were treated with the different BMPs with or without our VHHs or human Noggin at a concentration of 5 μg/ml. Luciferase activity was measured after 16 hours incubation. Most of the transcriptional data is in concordance with the results obtained with the phosphorylation of SMAD1/5/8.
(§2) C2C12 cells were plated in 96-well plates at 5×10^3 cells/well and cells were allowed to attach overnight. 100 μl of DMEM with 0.1% BSA were added in each well. VHH antibodies and human Fc-Noggin at the indicated concentrations were added at the same time. Wells with unstimulated cells were added as controls. Cells were treated in triplicate with the BMPs at the indicated concentrations for 16 hours. Luciferase activity was measured by adding 100 μl of luciferase substrate solution from the Bright-Glo™ Luciferase Assay System (Promega Benelux, Leiden, The Netherlands). After 3 minutes of incubation, luciferase activity was measured with Synergy HT Multi-Mode Microplate Reader (Biotek, Winooski, Vt., United States). Luciferase values were normalized to background activity (activity of wells with no cells) and represented as ratio to the activity of BMP-stimulated cells.
(§3) To evaluate the extent of this increase in potency, the IC50 of the different VHHs were determined in a dose-dependent inhibition assay in C2C12 cells (FIG. 25). C2C12 cells were plated in 96-well plates at 5×10^3 cells/well and cells were allowed to attach overnight 100 μl of DMEM with 0.1% BSA were added in each well. VHH antibodies were added at the indicated concentrations at the same time as 5 ng/ml BMP4 (FIG. 25A-B, D) or 50 ng/ml of BMP2 (FIG. 25C,D). Luciferase activity was measured after 16 hours. Values are represented as ratio to the activity of BMP-stimulated cells. […] However, its effects were more striking for BMP2 rather than BMP4 inhibition. […] The IC50 values for BMP4 inhibition observed in our VHHs are considerably lower than those observed for anti-BMP4 commercially available from R&D (Katagiri et al 1994) and those described in WO_2008/030611.
(§4) C2C12 cells were cultured in 96-well plates at 5×10^3 cells/well. After overnight attachment cells were stimulated with 10 ng/ml hBMP4 (Cat No. 314-BP-020; R&D Systems), 50 ng/ml hBMP2 (Cat No. 355-BM-010; R&D Systems), 200 ng/ml hBMP5 (Cat No. 615-BMC-020; R&D Systems), 50 ng/ml hBMP6 (Cat No. 506-BP-020; R&D Systems), 200 ng/ml hBMP7 (Cat No. 354-BP-010; R&D Systems), 25 ng/ml hBMP9 (Cat No. 3209-BP-010; R&D Systems), 25 ng/ml hBMP10 (Cat No. 2926-BP-025; R&D Systems), 50 ng/ml hBMP12 (Cat No. 779-G7-010; R&D Systems) and with or without VHH antibodies: C4C4 and C8C8 at 500 ng/ml; natural antagonist: mNoggin (Cat No. 1967-NG-025; R&D Systems), hNoggin (Cat No. 6057-NG; R&D Systems) and mGremlin (cat#956-GR-050; R&D Systems) at 500 ng/ml; chemical antagonist: 0.5 μM LDN-193189 (Cat No. 11802; Cayman Chemical) and 0.2 μM DMH1 (Cat No. 57146; Selleckchem).
(§5) VHH efficacy was evaluated by stimulating cells with 10 ng/ml of hBMP4 and 50 ng/ml of hBMP2, with and without increase concentrations (from 0.1-10 μg/ml) of VHH and anti-BMP4 antibodies: clone 66119, clone 3H2, clone M912262, clone PA354-16.1.1, Clone EPR6211, and anti-BMP4 (ab39973). […] Unstimulated cells were used as controls and wells with no cells used to normalize the background activity. […]

[2] = test system: human BMP4; assay: as above; format: cell-based, mouse
Experimental: as §1, §2, §3, §4, §5

[3] = test system: patient-derived SMAD4 deficient tumors; conditions: FIG. 6 of Lombardo et al.; cited from earlier work
[4] = target: T2, BMP4; assay: Surface plasmon resonance (SPR), BMPs injected over VHH-coated chip; format: binding; design: purchased R&D systems; ka (BMP4): unit not given here; conditions: molecule coupled to chip
Experimental: To confirm their BMP specificities and to elucidate their binding affinities, our VHHs were subjected to surface plasmon resonance (SPR) analysis. In a first set of experiments, controls and VHHs (either as monomers or dimers) were coupled to SPR chips and the measurement of BMP affinities was obtained by injecting the different BMPs to the plate.
Serial dilutions (2.0-10 μg/ml) of purified VHHs were spotted on an amine-specific SensEye gold-film gel-type SPRchip (Ssens), using a Continuous Flow Microspotter (Wasatch Microfluidics, Salt Lake City, Utah, United States) as described (Lokate et al., 2007). BMP binding was analyzed on an IBIS MX96 (IBIS Technologies, Enschede, The Netherlands) instrument by performing injections with dilution series (0.05-2.0 μg/ml) of recombinant BMPs on the VHH-coated chip. In each injection, BMPs were injected and incubated for 8 min, followed by 15 min thorough washing with binding buffer (PBS+0.05% Tween20+0.05% sodium azide) to measure dissociation. Epitope binning was done by injecting VHH dilutions (2.0 μg/ml) over the chip, immediately after the dissociation step. Injections with blank binding buffer were used as reference. After each concatenated injection, the chip was regenerated with 10 mM glycine-HCl, pH 2.0. Experimental data were processed with SPRintX software (IBIS Technologies) and kinetic parameters were determined using Scrubber2 software (BioLogic Software, Campbell, ACT, Australia). Binding constants were obtained by global fitting to a one-site binding model.

| inhibition of BMP-2 signals, comparison of inhibitors ([1]; 50 ng/ml hBMP2, 16 h, VHH, Noggin, Gremlin 500 ng/ml, LDN 0.5 μM, DMH1 0.2 μM) | IC50 ([1]; 50 ng/ml hBMP2, 16 hours, read-out: IC50, neutralization of BMP2) [nM] | IC50 ([2]; 10 ng/ml hBMP4, 16 hours, read-out: IC50, neutralization of BMP4) [nM] | kd (BMP4) [4] | inhibition of BMP2-mediated transcriptional activation by dimers ([1]; BMP2 50 ng/ml, 16 hours, increasing concentrations up to 5 μg/ml) | ka (BMP4) [4] | Molecule | inhibition of BMP4-derived signals, comparison of inhibitors ([2]; 10 ng/ml hBMP4, 16 h, VHH, Noggin, Gremlin 500 ng/ml, LDN 0.5 μM, DMH1 0.2 μM) | growth of SMAD4 deficient tumors after treatment [3] | inhibition of BMP4-mediated transcriptional activation by dimers ([2]; BMP4 5 ng/ml, 16 hours, increasing concentrations) |
| --- | --- | --- | --- | --- | --- | --- | --- | --- | --- |
| greatly inhibit | ~1.6 | ~0.54 | 3.9 10^−5 sec^−1 | – | – | hNoggin (protein) QHYLHIRPAPSDNLPLVDLIEHPDPIFDPKEKDLNETLLRSLLGGHYDPGFMATSPPEDRPGGGGGAAGGAEDLAELDQLLRQRPSGAMPSEIKGLEFSEGLAQGKKQRLSKKLRRKLQMWLWSQTFCPVLYAWNDLGSRFWPRYVKVGSCFSKRSCSVPEGMVCKPSKSVHLTVLRWRCQRRGGQRCGWIPIQYPIISECKCSC | greatly inhibit | generated tumors that grew faster instead of slower | – |
| – | – | – | 3.4 10^−5 sec^−1 | inhibit; also recorded: similar | 34.6 | C8E7: E7 linked to C8, hetero-dimer VHH bihead (protein) EVQLVESGGGLVQAGGSLRLSCAASGRTFRINDMGWYRQAPGKSRDMVARITSGGNTNYADSVKGRFTISRDNAKNTVYLQMNSLKPEDTAVYYCNADGLRFDSTRYRPFDSWGQGTQVTVSSGGGGSGGGGSEVQLVESGGGLVQAGGSLRLSCAASGSIRGFVAMAWYRQAPGKQREWVATVTNGGTLYGDSVKGRFTGSRDNAKNTVYLQMNSLKPEDTAVYYCALRQIGASGYDYWGQGTQVTVSS | – | – | inhibit; also recorded: similar |
